B1: 32G7 (antibody, V domains shown)
VH: EVQLVESGGGLVKPGGSLRLSCAASGFTISSYSMNWVRQAPGKGLEWVSFISSRSNYIYYADSVKGRFTISRDNAKNSLYLQMNSLRAEDTAVYYCSKDDWFEELWGQGTLVTVSS
VL: DIQMTQSPSSLSASVGDRVTITCRASQDIRNDLGWYQQKPGKAPKRLIYAASSLQSGVPSRFSGSGSGTEFTLTISSLQPEDFATYYCLQHNSFPWTFGQGTKVEIK
notes: Fully human monoclonal antibody from a XenoMouse hybridoma (IgG2 or IgG4 strain), purified
B2: 27A3 (antibody, V domains shown)
VH: QLQLQESGPGLVKPSETLSLTCTVSGGSISSRSDYWGWIRQPPGKGLEWIGTIYYSGDTYYNPSLKSRVTISVDTSKNQFSLKLSSVTAADTAVYYCARQQLVLYYFDYWGQGTLVTVSS
VL: EIVLTQSPGTLSLSPGERATLSCRASQSVSSSYLAWYQQKPGQAPRLLIYATSNRATGIPDRFSGSGSGTDFTLTISRLEPEDFAVYYCQQHGSSPPLTFGGGTKVEIK
notes: as for B1
B3: 29H3 (antibody, V domains shown)
VH: QVQLVQSGAEVKKPGASVKVSCKASGYTFTSYDINWVRQATGQGLEWMGWMNPNSGKTGYAQKFQGRVTMTRNTSINTAYMELSSLRSEDTAVYYCARGGYSNLGWFDPWGQGTLVTVSS
VL: DIQMTQSPSSVSASVGDRVTITCRASQGISSWLVWYHQKPGKAPKLLIYGASSLQSGVPSRFSGSGSGTDFTLTISSLQPEDFATYYCQQANNFPFTFGPGTKVDIK
notes: as for B1

How the values were obtained:
soluble KDR Ig4-7 domain [1] = molecular target: T1, soluble KDR Ig4-7 domain (human, UniProt P35968 328-764); experiment: ELISA, KDR Ig4-7 coat (1:1 diln.), antibody 0.01 ug/mL
T1 construct: domain: Ig4-7 domain; also called b-KDRIg4-7-myc-his; Ig4-7 domain of KDR; not shown: myc-his tag of the pSecTag construct
Protocol: (§1) The cross-reactivity of purified antibodies was tested against KDR mouse ortholog KDR mouse ortholog (mouse VEGFR2, or Flk-1) and human VEGFR1 (Flt-1). The ability of the antibodies to bind soluble KDR Ig4-7 domain and to the entire KDR extracellular domain (ECD) was also measured.
(§2) Cross-reactivity experiments were carried out and measured using an ELISA based assay as described in Example 6. […] Antibody controls included IgG1 and IgG4 (Sigma-Aldrich, Cat. #15154 and #14639, respectively).

human KDR [2] = molecular target: T2, human KDR (human, UniProt P35968 20-1356); experiment: cell-based or functional assay
soluble KDR Ig4-7 domain [3] = molecular target: T1, soluble KDR Ig4-7 domain; experiment: ELISA, KDR Ig4-7 coat (1:1 diln.), antibody 0.1 ug/mL
Protocol: as §1, §2

[4] = molecular target: T3, whole KDR-ECD (Cat. # 676490, Calbiochem) (human, UniProt P35968 20-764); experiment: ELISA, KDR-ECD coat 5 ug/mL, antibody 1 ug/mL
T3 construct: extracellular domain; Bought soluble protein; also called soluble KDR; VEGF Receptor 2 D1-7
Protocol: as §1, §2

[5] = molecular target: T3, whole KDR-ECD (Cat. # 676490, …); experiment: ELISA, KDR-ECD coat 5 ug/mL, antibody 0.1 ug/mL
Protocol: as §1, §2

[6] = molecular target: T4, mouse KDR (Flk-1)/Fc (Cat. #443-KD/CF, R&D Systems, Inc.) (mouse, UniProt P35918 20-762); experiment: ELISA, Flk-1 coat 5 ug/mL, antibody 0.01 ug/mL
T4 construct: Bought reagent; also called mouse VEGFR2; KDR mouse ortholog; not shown: Fc of the bought fusion protein
Protocol: as §1, §2

human KDR [7] = molecular target: T2, human KDR; experiment: FACS titration of purified antibody on HUVEC cells (FACS Kd)
Protocol: The binding affinities of the purified antibodies for endogenously-expressed KDR in HUVEC cells was measured. HUVEC cells were seeded at 150,000 cells/well and incubated with titrations of purified antibody for 4 hours at 4° C. The cells were then washed and incubated with goat anti-human IgG-Fc-Cy5+5 μg/mL 7-Amino-Actinomycin (7AAD) for 30 minutes at 4° C. Bound KDR was detected using FACS analysis.

human KDR [8] = molecular target: T2, human KDR; experiment: cell-based or functional assay; remark: listed apart in the source
soluble KDR Ig4-7 domain [9] = molecular target: T1, soluble KDR Ig4-7 domain; experiment: ELISA, KDR Ig4-7 coat (1:1 diln.), antibody 1 ug/mL
Protocol: as §1, §2

[10] = molecular target: T3, whole KDR-ECD (Cat. # 676490, …); experiment: ELISA, KDR-ECD coat 5 ug/mL, antibody 0.01 ug/mL
Protocol: as §1, §2

[11] = molecular target: T4, mouse KDR (Flk-1)/Fc (Cat. #443-KD/CF, …); experiment: ELISA, Flk-1 coat 5 ug/mL, antibody 0.1 ug/mL
Protocol: as §1, §2

[12] = molecular target: T4, mouse KDR (Flk-1)/Fc (Cat. #443-KD/CF, …); experiment: ELISA, Flk-1 coat 5 ug/mL, antibody 1 ug/mL
Protocol: as §1, §2

human KDR [13] = molecular target: T2, human KDR; experiment: cell-based or functional assay; remark: listed apart in the source
human KDR [14] = molecular target: T2, human KDR; experiment: FACS competition on 293T/human KDR transfectants; antibody 5 ug/mL first, then competitor VEGF165 50 ng/mL; inhibition of VEGF binding
Protocol: (§3) Transfected cells were then seeded at 50,000 cells/well and incubated with 5 μg/mL of candidate antibody for one hour at 4° C. […] After washing, the cells were incubated with Cy5-conjugated rabbit anti-goat antibody plus 7AAD for 15 minutes at 4° C.

human KDR [15] = molecular target: T2, human KDR; experiment: FACS competition on 293T/human KDR transfectants; antibody 5 ug/mL first, then competitor VEGF165 50 ng/mL; bound VEGF165 detected
Protocol: as §3

cynomolgus KDR = molecular target: T5, cynomolgus KDR (cynomolgus monkey, UniProt A0A2K5VE63 20-1356); experiment: FACS on Cyno KDR/293T transfectants, antibody 5 ug/mL
T5 construct: whole, on cells; also called Cyno KDR
Protocol: The binding of purified antibodies to cell-bound cynomolgus KDR (with parental cells as negative control) was tested by FACS analysis in this assay.
Cynomolgus KDR was cloned in 3 pieces. One piece was PCR amplified from cynomolgus lung cDNA, and the remaining two pieces were PCR amplified from cynomolgus kidney cDNA. The three PCR products were inserted into pCR3.1 Bid vector. […] Transfected cells were seeded at 50,000 cells/well and incubated with 5 μg/mL of candidate antibody for one hour at 4° C. The cells were then washed and incubated with secondary antibody (Cy5-conjugated goat anti-human antibody, or Cy5-conjugated rabbit anti-goat antibody, plus 7-Amino-Actinomycin (7AAD)) for 15 minutes at 4° C. Binding between cynomolgus KDR and purified antibody was detected by FACS analysis.

T4 sequence (P35918 20-762 limits assumed): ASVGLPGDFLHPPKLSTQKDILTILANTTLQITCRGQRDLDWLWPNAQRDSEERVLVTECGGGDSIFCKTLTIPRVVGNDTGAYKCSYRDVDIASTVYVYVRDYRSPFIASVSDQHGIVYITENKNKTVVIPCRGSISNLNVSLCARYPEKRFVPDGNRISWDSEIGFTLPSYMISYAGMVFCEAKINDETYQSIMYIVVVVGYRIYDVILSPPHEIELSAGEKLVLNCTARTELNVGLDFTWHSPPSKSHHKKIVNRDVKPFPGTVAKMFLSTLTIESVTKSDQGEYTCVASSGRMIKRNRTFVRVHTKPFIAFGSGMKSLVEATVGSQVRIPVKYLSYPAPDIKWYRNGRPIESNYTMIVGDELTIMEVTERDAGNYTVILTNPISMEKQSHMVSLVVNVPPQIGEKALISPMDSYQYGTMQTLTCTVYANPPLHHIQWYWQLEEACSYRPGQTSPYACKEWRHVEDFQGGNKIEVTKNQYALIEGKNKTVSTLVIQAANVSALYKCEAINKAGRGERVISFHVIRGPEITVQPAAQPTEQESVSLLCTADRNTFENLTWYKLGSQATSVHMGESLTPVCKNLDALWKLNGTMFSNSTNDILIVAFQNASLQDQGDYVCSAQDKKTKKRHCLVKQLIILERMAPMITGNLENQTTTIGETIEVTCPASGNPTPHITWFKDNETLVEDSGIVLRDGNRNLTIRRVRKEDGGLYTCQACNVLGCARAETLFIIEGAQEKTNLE
T3 sequence (P35968 20-764): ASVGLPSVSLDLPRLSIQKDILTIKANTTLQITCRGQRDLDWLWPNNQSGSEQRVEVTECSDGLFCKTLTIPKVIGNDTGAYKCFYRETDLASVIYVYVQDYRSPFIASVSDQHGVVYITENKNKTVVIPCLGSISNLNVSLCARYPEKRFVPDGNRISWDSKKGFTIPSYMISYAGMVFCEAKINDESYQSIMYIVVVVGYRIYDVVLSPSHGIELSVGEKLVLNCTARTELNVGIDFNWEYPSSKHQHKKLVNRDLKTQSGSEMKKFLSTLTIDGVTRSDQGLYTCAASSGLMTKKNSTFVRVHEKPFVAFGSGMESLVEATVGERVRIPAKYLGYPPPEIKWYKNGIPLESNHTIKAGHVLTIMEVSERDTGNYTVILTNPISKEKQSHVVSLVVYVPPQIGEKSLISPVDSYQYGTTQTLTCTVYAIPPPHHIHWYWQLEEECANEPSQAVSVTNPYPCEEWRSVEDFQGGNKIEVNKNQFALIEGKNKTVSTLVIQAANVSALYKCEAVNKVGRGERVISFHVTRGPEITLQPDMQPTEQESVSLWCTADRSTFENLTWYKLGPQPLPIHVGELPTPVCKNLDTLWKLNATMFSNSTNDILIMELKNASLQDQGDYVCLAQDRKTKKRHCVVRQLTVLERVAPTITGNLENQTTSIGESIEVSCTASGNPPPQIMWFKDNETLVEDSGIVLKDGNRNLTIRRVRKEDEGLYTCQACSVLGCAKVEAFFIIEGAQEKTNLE
T1 sequence (P35968 328-764): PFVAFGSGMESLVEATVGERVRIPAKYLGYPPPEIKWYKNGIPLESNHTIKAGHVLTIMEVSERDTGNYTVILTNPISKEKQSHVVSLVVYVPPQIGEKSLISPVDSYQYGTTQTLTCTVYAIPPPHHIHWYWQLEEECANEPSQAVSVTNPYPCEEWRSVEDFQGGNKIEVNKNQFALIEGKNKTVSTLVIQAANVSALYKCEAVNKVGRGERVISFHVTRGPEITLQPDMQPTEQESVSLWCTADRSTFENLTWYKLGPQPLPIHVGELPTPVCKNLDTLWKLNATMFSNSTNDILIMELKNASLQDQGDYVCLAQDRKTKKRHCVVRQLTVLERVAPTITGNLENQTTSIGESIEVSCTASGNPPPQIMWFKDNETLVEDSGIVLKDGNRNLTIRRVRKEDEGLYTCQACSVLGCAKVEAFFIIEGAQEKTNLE
T2 sequence (P35968 20-1356): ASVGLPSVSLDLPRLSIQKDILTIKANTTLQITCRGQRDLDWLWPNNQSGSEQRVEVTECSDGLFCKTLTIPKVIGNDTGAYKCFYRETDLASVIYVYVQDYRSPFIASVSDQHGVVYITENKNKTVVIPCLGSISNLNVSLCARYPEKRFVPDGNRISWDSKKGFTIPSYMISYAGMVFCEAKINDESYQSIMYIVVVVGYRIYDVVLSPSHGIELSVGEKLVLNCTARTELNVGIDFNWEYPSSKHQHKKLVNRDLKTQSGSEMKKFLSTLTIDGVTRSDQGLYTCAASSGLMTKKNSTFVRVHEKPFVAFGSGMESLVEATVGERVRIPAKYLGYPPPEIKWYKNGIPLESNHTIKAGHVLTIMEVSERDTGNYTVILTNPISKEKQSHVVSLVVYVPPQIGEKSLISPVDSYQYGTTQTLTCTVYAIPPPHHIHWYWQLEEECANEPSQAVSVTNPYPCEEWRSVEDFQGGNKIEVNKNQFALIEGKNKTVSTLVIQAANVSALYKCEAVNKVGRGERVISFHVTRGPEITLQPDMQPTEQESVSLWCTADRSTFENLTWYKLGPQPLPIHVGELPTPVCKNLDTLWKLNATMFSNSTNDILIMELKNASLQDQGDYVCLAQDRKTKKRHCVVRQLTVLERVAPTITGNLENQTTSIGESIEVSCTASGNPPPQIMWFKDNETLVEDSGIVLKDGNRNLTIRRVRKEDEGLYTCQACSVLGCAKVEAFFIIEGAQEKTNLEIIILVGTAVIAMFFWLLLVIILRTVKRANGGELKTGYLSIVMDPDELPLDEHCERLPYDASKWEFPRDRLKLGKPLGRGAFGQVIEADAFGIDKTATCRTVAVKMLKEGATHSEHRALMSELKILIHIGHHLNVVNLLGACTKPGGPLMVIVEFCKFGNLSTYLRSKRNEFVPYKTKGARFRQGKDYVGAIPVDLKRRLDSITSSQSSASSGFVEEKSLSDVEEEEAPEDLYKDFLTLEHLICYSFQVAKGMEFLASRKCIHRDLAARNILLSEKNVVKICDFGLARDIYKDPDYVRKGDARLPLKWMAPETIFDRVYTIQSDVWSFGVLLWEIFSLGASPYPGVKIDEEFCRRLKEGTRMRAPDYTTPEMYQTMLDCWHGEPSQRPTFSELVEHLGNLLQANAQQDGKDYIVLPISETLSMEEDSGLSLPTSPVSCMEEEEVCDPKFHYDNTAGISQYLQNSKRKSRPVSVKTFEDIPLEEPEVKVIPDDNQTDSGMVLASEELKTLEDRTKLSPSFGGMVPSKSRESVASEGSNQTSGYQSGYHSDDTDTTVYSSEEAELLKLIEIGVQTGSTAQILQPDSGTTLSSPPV
T5 sequence (A0A2K5VE63 entry or part of it): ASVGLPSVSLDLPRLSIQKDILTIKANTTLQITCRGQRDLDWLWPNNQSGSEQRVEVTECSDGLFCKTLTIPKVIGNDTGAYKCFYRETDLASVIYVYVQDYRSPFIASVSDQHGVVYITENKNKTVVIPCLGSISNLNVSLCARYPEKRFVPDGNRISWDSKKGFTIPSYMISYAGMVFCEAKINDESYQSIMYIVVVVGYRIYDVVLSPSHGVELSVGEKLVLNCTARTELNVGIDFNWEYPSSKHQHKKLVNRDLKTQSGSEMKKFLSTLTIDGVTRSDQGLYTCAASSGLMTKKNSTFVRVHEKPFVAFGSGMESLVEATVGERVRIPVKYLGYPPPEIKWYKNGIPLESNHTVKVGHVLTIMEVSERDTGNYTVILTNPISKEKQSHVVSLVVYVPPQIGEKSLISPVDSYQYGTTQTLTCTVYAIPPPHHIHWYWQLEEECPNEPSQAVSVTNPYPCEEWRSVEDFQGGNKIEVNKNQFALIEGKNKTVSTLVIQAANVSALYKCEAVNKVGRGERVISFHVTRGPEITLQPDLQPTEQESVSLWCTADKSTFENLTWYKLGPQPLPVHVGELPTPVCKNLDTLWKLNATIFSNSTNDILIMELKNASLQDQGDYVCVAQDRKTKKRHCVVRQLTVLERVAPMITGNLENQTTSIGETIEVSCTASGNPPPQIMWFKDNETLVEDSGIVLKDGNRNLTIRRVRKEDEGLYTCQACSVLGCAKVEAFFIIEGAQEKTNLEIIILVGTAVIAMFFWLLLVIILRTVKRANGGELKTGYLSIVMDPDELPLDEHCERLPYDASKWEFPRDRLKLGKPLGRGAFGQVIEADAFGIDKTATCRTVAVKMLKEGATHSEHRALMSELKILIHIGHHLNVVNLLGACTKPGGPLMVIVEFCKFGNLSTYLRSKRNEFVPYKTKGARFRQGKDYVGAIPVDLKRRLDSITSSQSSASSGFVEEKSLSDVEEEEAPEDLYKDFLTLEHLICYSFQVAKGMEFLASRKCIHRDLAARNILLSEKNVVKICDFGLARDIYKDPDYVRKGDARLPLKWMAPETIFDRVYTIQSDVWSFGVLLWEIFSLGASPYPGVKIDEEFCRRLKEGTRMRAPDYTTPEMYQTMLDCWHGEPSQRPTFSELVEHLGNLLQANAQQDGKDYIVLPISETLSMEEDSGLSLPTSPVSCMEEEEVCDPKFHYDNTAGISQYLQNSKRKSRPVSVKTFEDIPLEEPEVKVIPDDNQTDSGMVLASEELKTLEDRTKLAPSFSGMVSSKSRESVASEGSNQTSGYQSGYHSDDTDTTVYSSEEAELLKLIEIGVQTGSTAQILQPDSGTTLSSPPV

Binder	ELISA reading (soluble KDR Ig4-7 domain [1])	6-keto Prostaglandin F1α release, EC50 (nM), Average (human KDR [2]) [nM]	6-keto Prostaglandin F1α release, Maximum Inhibition (% Inhibition), Average (human KDR [2]) [%]	6-keto Prostaglandin F1α release, Maximum Inhibition (% Inhibition), N = 1 (200 nM) (human KDR [2]) [%]	6-keto Prostaglandin F1α release, Maximum Inhibition (% Inhibition), N = 2 (333 nM) (human KDR [2]) [%]	ELISA reading (soluble KDR Ig4-7 domain [3])	ELISA reading [4]	ELISA reading [5]	Kd (human KDR [7]) [nM]	HUVEC survival, Maximum Inhibition at 50 nM (% Inhibition), Average (human KDR [8]) [%]	HUVEC survival, Maximum Inhibition at 50 nM (% Inhibition), N = 1 (human KDR [8]) [%]	HUVEC survival, Maximum Inhibition at 50 nM (% Inhibition), N = 2 (human KDR [8]) [%]	ELISA reading (soluble KDR Ig4-7 domain [9])	ELISA reading [10]	KDR tyrosine phosphorylation in HUVEC, EC50 (nM), Average (human KDR [13]) [nM]	KDR tyrosine phosphorylation in HUVEC, EC50 (nM), N = 1 (human KDR [13]) [nM]	KDR tyrosine phosphorylation in HUVEC, EC50 (nM), N = 2 (human KDR [13]) [nM]	KDR tyrosine phosphorylation in HUVEC, Maximum Inhibition at 100 nM (% Inhibition), Average (human KDR [13]) [%]	KDR tyrosine phosphorylation in HUVEC, Maximum Inhibition at 100 nM (% Inhibition), N = 1 (human KDR [13]) [%]	KDR tyrosine phosphorylation in HUVEC, Maximum Inhibition at 100 nM (% Inhibition), N = 2 (human KDR [13]) [%]	other results
B1	0.933	23.1	42	28	55	2.31	2.36	0.307	0.2	72	73	72	2.65	0.103	0.6	0.6	0.6	73	69	77	6-keto Prostaglandin F1α release, EC50 (nM), N = 1 (human KDR [2]): 11.2 nM; 6-keto Prostaglandin F1α release, EC50 (nM), N = 2 (human KDR [2]): 35.1 nM; ELISA reading [6]: 0.988; ELISA reading [11]: 2.14; ELISA reading [12]: 2.67
B2	0.08	5.6	49	49	49	0.075	1.97	0.111	5.4	95	95	94	0.078	0.093	3.1	3.4	2.9	78	77	79	6-keto Prostaglandin F1α release, EC50 (nM), N = 1 (human KDR [2]): 5.5 nM; 6-keto Prostaglandin F1α release, EC50 (nM), N = 2 (human KDR [2]): 5.7 nM; % Inhibition (human KDR [14]): 9%; FACS Geometric Mean Fluorescence (bound VEGF165) (human KDR [15]): 118; FACS Geometric Mean Fluorescence (cynomolgus KDR): 89.7
B3	1.14		5	2	8	2.36	2.62	0.306	0.5	11	4	18	3.02	0.099	0.4	0.5	0.4	32	33	30	ELISA reading [6]: 1.14; ELISA reading [11]: 2.35; ELISA reading [12]: 3.04
